Key:
Assay in all cases: cell-based or functional assay
[1] = biological target: HIV-1 Env of pseudovirus 9004SS_A3_4 (HIV-1)
[2] = biological target: HIV-1 envelope of pseudovirus 620345.c01 (HIV-1)
[3] = biological target: HIV-1 envelope of pseudovirus 89-F1_2_25 (HIV-1)
[4] = biological target: HIV-1 Env of pseudovirus RHPA4259.7 (HIV-1)
[5] = biological target: HIV-1 envelope of pseudovirus T257-31 (HIV-1)
[6] = biological target: HIV-1 envelope of pseudovirus BJOX009000.02.4 (HIV-1)
[7] = biological target: HIV-1 envelope of pseudovirus 249M B10 (HIV-1)
[8] = biological target: HIV-1 envelope of pseudovirus Ce1172_H1 (HIV-1)
[9] = biological target: HIV-1 envelope of pseudovirus 1394C9G1(Rev-) (HIV-1)
[10] = biological target: HIV-1 Env of pseudovirus CNE30 (HIV-1)
[11] = biological target: HIV-1 Env of pseudovirus AC10.0.29 (HIV-1)
[12] = biological target: HIV-1 Env of pseudovirus T251-18 (HIV-1)
[13] = biological target: HIV-1 envelope of pseudovirus CNE21 (HIV-1)
[14] = biological target: HIV-1 Env of pseudovirus BJOX015000.11.5 (HIV-1)
[15] = biological target: HIV-1 envelope of pseudovirus 6545.v4.c1 (HIV-1)
[16] = biological target: HIV-1 envelope of pseudovirus Q769.d22 (HIV-1)
[17] = biological target: HIV-1 envelope of pseudovirus BJOX028000.10.3 (HIV-1)
[18] = biological target: HIV-1 envelope spike of pseudovirus R1166.c1 (HIV-1)
[19] = biological target: HIV-1 envelope spike of pseudovirus BaL.26 (HIV-1)
[20] = biological target: HIV-1 envelope of pseudovirus CAP210.2.00.E8 (HIV-1)
[21] = biological target: HIV-1 Env of pseudovirus ZM109F.PB4 (HIV-1)
[22] = biological target: HIV-1 envelope of pseudovirus 0260.v5.c36 (HIV-1)
[23] = biological target: HIV-1 envelope of pseudovirus Ce1176_A3 (HIV-1)
[24] = biological target: HIV-1 Env of pseudovirus ZM233M.PB6 (HIV-1)
[25] = biological target: HIV-1 Env of pseudovirus X1193_c1 (HIV-1)
[26] = biological target: HIV-1 Env of pseudovirus 6244_13_85_4576 (HIV-1)
[27] = biological target: HIV-1 envelope of pseudovirus Ce0682_E4 (HIV-1)
[28] = biological target: HIV-1 Env of pseudovirus ZM197M.PB7 (HIV-1)
[29] = biological target: HIV-1 envelope of pseudovirus CNE58 (HIV-1)
[30] = biological target: HIV-1 Env of pseudovirus 231966.c02 (HIV-1)
[31] = biological target: HIV-1 envelope of pseudovirus Ce2010_F5 (HIV-1)
[32] = biological target: HIV-1 envelope of pseudovirus 928-28 (HIV-1)
[33] = biological target: HIV-1 Env of pseudovirus X1632_S2_B10 (HIV-1)
[34] = biological target: HIV-1 Env of pseudovirus CNE17 (HIV-1)
[35] = biological target: HIV-1 Env of pseudovirus C2101.c01 (HIV-1)
[36] = biological target: HIV-1 envelope of pseudovirus 3016.v5.c45 (HIV-1)
[37] = biological target: HIV-1 Env of pseudovirus Ce1176_A3 (HIV-1)
[38] = biological target: HIV-1 envelope spike of pseudovirus CAAN5342.A2 (HIV-1)
[39] = biological target: HIV-1 Env of pseudovirus Ce1172_H1 (HIV-1)
[40] = biological target: HIV-1 Env of pseudovirus Du156.12 (HIV-1)
[41] = biological target: HIV-1 Env of pseudovirus 246F C1G (HIV-1)
[42] = biological target: HIV-1 Env of pseudovirus REJO4541.67 (HIV-1)
[43] = biological target: HIV-1 envelope of pseudovirus Q259.d2.17 (HIV-1)
[44] = biological target: HIV-1 envelope of pseudovirus HIV-16055-2.3 (HIV-1)
[45] = biological target: HIV-1 envelope of pseudovirus P1981_C5_3 (HIV-1)
[46] = biological target: HIV-1 envelope of pseudovirus 211-9 (HIV-1)
[47] = biological target: HIV-1 Env of pseudovirus CAP210.2.00.E8 (HIV-1)
[48] = biological target: HIV-1 envelope of pseudovirus AC10.0.29 (HIV-1)
[49] = biological target: HIV-1 Env of pseudovirus BJOX028000.10.3 (HIV-1)
[50] = biological target: HIV-1 Env of pseudovirus Q259.d2.17 (HIV-1)

10-1074 (antibody), sequence (VH): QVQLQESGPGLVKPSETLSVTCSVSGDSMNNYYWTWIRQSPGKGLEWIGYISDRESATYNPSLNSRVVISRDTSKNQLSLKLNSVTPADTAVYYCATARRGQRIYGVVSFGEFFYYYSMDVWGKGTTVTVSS
10-1074 (antibody), sequence (V domain): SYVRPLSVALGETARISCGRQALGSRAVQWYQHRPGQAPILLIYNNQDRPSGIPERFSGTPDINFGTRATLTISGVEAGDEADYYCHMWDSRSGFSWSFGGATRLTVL

Substance 10-1074 (antibody) has an IC80 (TZM-bl neutralization) [1] of 0.03 µg/mL, an IC50 (TZM-bl neutralization) [2] of over 50 µg/mL and an IC50 (TZM-bl neutralization) [3] of over 50 µg/mL. The IC80 (TZM-bl neutralization) [4] was 0.118 µg/mL, the IC50 (TZM-bl neutralization) [5] was over 50 µg/mL and the IC50 (TZM-bl neutralization) [6] was over 50 µg/mL. The IC50 (TZM-bl neutralization) [7] was over 50 µg/mL, the IC50 (TZM-bl neutralization) [8] was 0.047 µg/mL and the IC50 (TZM-bl neutralization) [9] was 0.05 µg/mL. The IC80 (TZM-bl neutralization) [10] was 1.2 µg/mL, the IC80 (TZM-bl neutralization) [11] was 0.11 µg/mL and the IC80 (TZM-bl neutralization) [12] was 7.39 µg/mL. The IC50 (TZM-bl neutralization) [13] was 0.087 µg/mL, the IC80 (TZM-bl neutralization) [14] was over 50 µg/mL and the IC50 (TZM-bl neutralization) [15] was over 50 µg/mL. For the same substance, the IC50 (TZM-bl neutralization) [16] was over 50 µg/mL, the IC50 (TZM-bl neutralization) [17] was over 50 µg/mL and the IC50 (TZM-bl neutralization assay) [18] was over 40 µg/mL. The IC80 (TZM-bl neutralization assay) [18] was over 40 µg/mL, the IC50 (TZM-bl neutralization assay) [19] was 0.033 µg/mL and the IC80 (TZM-bl neutralization assay) [19] was 0.124 µg/mL. For the same substance, the IC50 (TZM-bl neutralization) [20] was over 50 µg/mL, the IC80 (TZM-bl neutralization) [21] was over 50 µg/mL and the IC50 (TZM-bl neutralization) [22] was 0.099 µg/mL. It also gave an IC50 (TZM-bl neutralization) [23] of 0.018 µg/mL, an IC80 (TZM-bl neutralization) [24] of 0.349 µg/mL and an IC80 (TZM-bl neutralization) [25] of 0.475 µg/mL. The IC80 (TZM-bl neutralization) [26] was 0.922 µg/mL, the IC50 (TZM-bl neutralization) [27] was over 50 µg/mL and the IC80 (TZM-bl neutralization) [28] was over 50 µg/mL. For the same substance, the IC50 (TZM-bl neutralization) [29] was 0.267 µg/mL, the IC80 (TZM-bl neutralization) [30] was over 50 µg/mL and the IC50 (TZM-bl neutralization) [31] was over 50 µg/mL. The IC50 (TZM-bl neutralization) [32] was 0.847 µg/mL, the IC80 (TZM-bl neutralization) [33] was over 50 µg/mL and the IC80 (TZM-bl neutralization) [34] was 13.3 µg/mL. It also gave an IC80 (TZM-bl neutralization) [35] of over 50 µg/mL, an IC50 (TZM-bl neutralization) [36] of over 50 µg/mL and an IC80 (TZM-bl neutralization) [37] of 0.07 µg/mL. It also gave an IC50 (TZM-bl neutralization assay) [38] of 0.007 µg/mL, an IC80 (TZM-bl neutralization assay) [38] of 0.044 µg/mL and an IC80 (TZM-bl neutralization) [39] of 0.166 µg/mL. The IC80 (TZM-bl neutralization) [40] was 0.076 µg/mL, the IC80 (TZM-bl neutralization) [41] was 0.111 µg/mL and the IC80 (TZM-bl neutralization) [42] was over 50 µg/mL. It also gave an IC50 (TZM-bl neutralization) [43] of over 50 µg/mL, an IC50 (TZM-bl neutralization) [44] of over 50 µg/mL and an IC50 (TZM-bl neutralization) [45] of 0.005 µg/mL. It also gave an IC50 (TZM-bl neutralization) [46] of 0.112 µg/mL, an IC80 (TZM-bl neutralization) [47] of over 50 µg/mL and an IC50 (TZM-bl neutralization) [48] of 0.022 µg/mL. The IC80 (TZM-bl neutralization) [49] was over 50 µg/mL and the IC80 (TZM-bl neutralization) [50] was over 50 µg/mL.
